Among the data in paper PMC5551413 are stoichiometry N values, retold here.

Assay [1] has as its target Streptococcus pyogenes NH3-dependent NAD+ synthetase (spNadE) (Streptococcus pyogenes). Put plainly: crystal structure.
Assay [2] has the same target. Put plainly: SEC.
Assay [3] has the same target. Put plainly: dynamic light scattering.
In assay [4] the target is Streptococcus pyogenes quinolinate phosphoribosyltransferase (spNadC) (Streptococcus pyogenes). The assay is described as follows: SEC.
Assay [5] shares this target. The assay is described as follows: dynamic light scattering.
The target in assay [6] is spNadC Δ69A deletion mutant (Streptococcus pyogenes). The assay is described as follows: crystal structure.

For “Streptococcus pyogenes NH3-dependent NAD+ synthetase (spNadE) (enzyme)”, the stoichiometry N in assay [1], in assay [2] and in assay [3] was 2 in each case.

For the substance “Streptococcus pyogenes quinolinate phosphoribosyltransferase (spNadC) (enzyme)”, the stoichiometry N in assay [4] and in assay [5] was 6 in each case.

With spNadC Δ69A deletion mutant (enzyme), the stoichiometry N in assay [6] worked out at 6.
